For 167 variants, enrichment results are on record in publication PMC12212125, “Constitutively active Arabidopsis cryptochrome two alleles identified using yeast selection and deep mutational scanning” (The Journal of Biological Chemistry, 2025).

B1: Arabidopsis thaliana cryptochrome 2 (CRY2, UniProt Q96524), residues 1-535 fused after the Gal4 DNA-binding domain (Gal4BD-CRY2(535)); mutagenized window 321-412, Q96524 (parent)
chain: MKMDKKTIVWFRRDLRIEDNPALAAAAHEGSVFPVFIWCPEEEGQFYPGRASRWWMKQSLAHLSQSLKALGSDLTLIKTHNTISAILDCIRVTGATKVVFNHLYDPVSLVRDHTVKEKLVERGISVQSYNGDLLYEPWEIYCEKGKPFTSFNSYWKKCLDMSIESVMLPPPWRLMPITAAAEAIWACSIEELGLENEAEKPSNALLTRAWSPGWSNADKLLNEFIEKQLIDYAKNSKKVVGNSTSLLSPYLHFGEISVRHVFQCARMKQIIWARDKNSEGEESADLFLRGIGLREYSRYICFNFPFTHEQSLLSHLRFFPWDADVDKFKAWRQGRTGYPLVDAGMRELWATGWMHNRIRVIVSSFAVKFLLLPWKWGMKYFWDTLLDADLECDILGWQYISGSIPDGHELDRLDNPALQGAKYDPEGEYIRQWLPELARLPTEWIHHPWDAPLTVLKASGVELGTNYAKPIVDIDTARELLAKAISRTREAQIMIGAAPDEIVADSFEALGANTIKEPGLCPSVSSNDQQVPSAV

Variants of B1 are the subject of the assay. Put plainly: yeast two-hybrid growth selection (MaV203; Gal4BD-CRY2(1-535) library x Gal4AD-CIB1; URA3 reporter on SC -Trp/-Leu/-Ura) in the dark, deep sequencing before and after selection, Enrich2 scoring; three independent screens (one at 48 h, two …). Conditions: with CIB1 (CRYPTOCHROME-INTERACTING BASIC-HELIX-LOOP-HELIX 1), dark (no blue light), screens 1, 3 and 4, Svar > 0 = enriched under dark selection for CRY2-CIB1 two-hybrid growth (URA3 reporter), < 0 = depleted, relative to wild type (whose scores are 0). 'The Enrich2 software calculates, parent: 0, not an affinity, scale: Enrich2 score, numbering: uniprot, sequence starts at 1.
Take L395H: the enrichment was -0.769.
With L395P the figure was -0.953; with L395R, -0.209; with L395Q, 2.71.
With L395F the figure was 2.13; with M354I, 0.689.
With M354K the figure was -1.63.
As for M354L, the enrichment is 0.399.
For the variant M354V, the enrichment was 0.0609.
Regarding M354T, the enrichment was 0.533.
With M354R, the enrichment is -1.57.
Turning to G396V, the enrichment is 0.898.
Take G396S: the enrichment is -1.1.
The figure for G396A is -1.05; for G396R it is 2.19; for G396D it is 0.65.
Turning to S403I, the enrichment is 2.54.
On to S403C, for which the enrichment was 0.314.
On to S403G, for which the enrichment was -0.408.
As for M378K, the enrichment is 2.66.
Regarding M378R, the enrichment was 2.81.
In the case of M378L, the enrichment was -0.703.
With M378V the figure was 0.308; with M378A, 0.99.
In the case of M378I, the enrichment was -0.703.
With M378T, the enrichment was 2.32.
Consider P373T, for which the enrichment was 0.0155.
Consider P373L, for which the enrichment was -0.618.
For the variant P373S, the enrichment was -0.52.
For P373Q, the enrichment was -0.644.
The figure for V367M is 1.21.
Regarding V367A, the enrichment is -0.78.
In the case of V367G, the enrichment is -0.377.
The figure for V367L is 1.55; for V367E it is -0.759; for D393V it is 0.508.
The figure for D393A is 1.64.
As for D393E, the enrichment was 1.18.
On to D393Y, for which the enrichment is -0.612.
The figure for D393G is 2.3.
In the case of D393S, the enrichment is 2.65.
The figure for D393N is 1.16.
N356S: the enrichment is 0.0584.
For N356T, the enrichment was 0.0153.
On to N356H, for which the enrichment was 0.0591.
Regarding N356Y, the enrichment was 0.824.
For the variant N356K, the enrichment is -0.299.
Take N356I: the enrichment is -0.473.
Take N356D: the enrichment is 2.44.
As for Q398H, the enrichment is 1.96.
With Q398P the figure was -0.641; with Q398R, 2.52; with Q398K, 2.11.
With Q398L, the enrichment was 1.96.
As to Q398E, the enrichment was 1.41.
With Q398W the figure was 1.99; with A343G, -0.899.
A343P: the enrichment is -2.1.
With A343T the figure was -0.823.
In the case of A343D, the enrichment is -0.747.
For the variant W349S, the enrichment was 0.756.
Turning to W349G, the enrichment was 0.303.
Regarding W349R, the enrichment was 0.599.
With W349C the figure was 0.242; with C392S, -0.465; with C392F, -0.128.
In the case of C392R, the enrichment was -1.14.
As to C392W, the enrichment was -0.824.
Consider C392Y, for which the enrichment is -1.08.
With C392G the figure was -0.321; with K375V, 1.44.
In the case of K375R, the enrichment was -0.0254.
On to K375T, for which the enrichment was -0.845.
As to K375I, the enrichment was 0.307.
Turning to K375Q, the enrichment was 0.228.
K375E: the enrichment was 2.2.
As for K375S, the enrichment is 0.796.
Regarding L340M, the enrichment is 0.444.
As to L340W, the enrichment is -1.48.
L340V: the enrichment is -0.561.
Turning to L340F, the enrichment was -1.05.
Turning to L340S, the enrichment is -1.47.
For W374G, the enrichment is 0.75.
With W374L, the enrichment is 1.65.
For the variant W374C, the enrichment is 1.8.
Regarding W374R, the enrichment is 1.5.
With V362I the figure was 0.151; with V362D, -1.36; with V362A, -0.304.
The figure for V362G is -1.16; for F381I it is -0.4.
Turning to F381L, the enrichment is 1.1.
As to F381Y, the enrichment was 0.399.
With F381V the figure was -0.0604; with F381T, 1.8.
Turning to F381C, the enrichment was 0.0158.
F381S: the enrichment was -1.2.
L390S: the enrichment is -1.09.
Regarding L390F, the enrichment was 1.66.
Consider L390M, for which the enrichment is -0.808.
Turning to L390V, the enrichment is 0.548.
The figure for L390W is 2.28; for W376S it is -1.68.
The figure for W376L is 0.0656; for W376G it is -0.7.
As to W376C, the enrichment was -0.498.
Turning to W376R, the enrichment was -1.3.
Turning to I358T, the enrichment is -0.414.
For I358R, the enrichment is -0.0561.
With I358K, the enrichment was -1.34.
Consider I358M, for which the enrichment was 0.739.
For the variant I358L, the enrichment was 0.903.
On to I358V, for which the enrichment is 0.345.
As for L370I, the enrichment is -0.966.
With L370P, the enrichment was -1.4.
With L370R, the enrichment was 0.499.
With L370H, the enrichment is -0.964.
As to L372P, the enrichment was -1.5.
Consider L372I, for which the enrichment is -0.44.
The figure for L372H is -1.45.
For L372F, the enrichment was 0.987.
Take L372R: the enrichment is 0.499.
Consider L386W, for which the enrichment is -0.68.
Take L386M: the enrichment was 0.0161.
Regarding L386F, the enrichment is -0.324.
The figure for L386S is -0.716.
In the case of L386V, the enrichment is 0.483.
Regarding F369I, the enrichment was -0.158.
As for F369L, the enrichment was 0.468.
As for F369V, the enrichment is 1.03.
For the variant F369C, the enrichment is 0.578.
As to F369T, the enrichment was -2.07.
Regarding F369S, the enrichment was -0.00513.
On to P339Q, for which the enrichment was -1.15.
Regarding P339T, the enrichment was -0.66.
As to V341A, the enrichment was -1.68.
Consider V341L, for which the enrichment was -1.04.
With V341M, the enrichment was -0.679.
As for V341E, the enrichment is -1.64.
Turning to V341G, the enrichment was -1.65.
Consider L348I, for which the enrichment was -0.199.
The figure for L348F is 2.98; for L348H it is -1.52.
On to L348R, for which the enrichment is -1.14.
Take L348P: the enrichment was -1.54.
Take A366V: the enrichment is 2.13.
With A366D the figure was -0.566.
Turning to A366P, the enrichment is -1.03.
In the case of A366T, the enrichment is 1.
E347K: the enrichment is -1.6.
Regarding E347G, the enrichment is -1.39.
Turning to E347A, the enrichment was 0.457.
The figure for E347V is -1.41; for E347D it is -0.854.
Consider I361M, for which the enrichment is -0.375.
With I361V the figure was -0.287.
As for I361S, the enrichment was -0.712.
Take I361F: the enrichment was -0.00476.
With I361N, the enrichment is -1.11.
Regarding I361T, the enrichment was -0.646.
Turning to I361L, the enrichment is 0.823.
With A350P the figure was -1.4; with A350T, -0.108.
For the variant A350S, the enrichment is 0.303.
As for A350G, the enrichment is 0.232.
With A350V, the enrichment is -0.0426.
For the variant A350D, the enrichment was -0.775.
